Data reported in paper doi:10.1101/2023.08.24.554544.

Target: GST-tagged A. thaliana Rpn10 (AtRpn10) vWA domain (Arabidopsis thaliana) (UniProt P55034)
Assay: SPR

Chain of GST-tagged A. thaliana Rpn10 (AtRpn10) vWA domain (Arabidopsis thaliana) (P55034 2-193): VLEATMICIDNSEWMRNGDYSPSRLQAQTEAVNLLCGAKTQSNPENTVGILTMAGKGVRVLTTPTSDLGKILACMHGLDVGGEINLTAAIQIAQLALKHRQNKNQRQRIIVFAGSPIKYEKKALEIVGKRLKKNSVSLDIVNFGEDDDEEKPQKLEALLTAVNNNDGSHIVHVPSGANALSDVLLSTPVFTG

V-shape-GSGS-C-ter peptide (fused V-shape and C-ter peptide of SAP05, linked by the GSGS linker)
Kd: 34.3 µM
